# Laboratory results from the supplement of paper PMC9112550, “Optimization of the antimicrobial peptide Bac7 by deep mutational scanning” (BMC Biology, 2022).
# Tested on: Escherichia coli TOP10
# Assay: shrunken log2 fold change of peptide-encoding DNA abundance (4.5 h post-induction vs induction); higher = less antimicrobial activity (less host growth inhibition)
# Conditions: time post-induction: 4.5 h; library: site-saturation at positions 5, 18, 19, 20
# 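Note: peptides expressed intracellularly from a pBAD plasmid library in pooled LB shake-flask culture, induced with 0.3% L-arabinose, DNA abundance read by NGS, three biological replicates, DESeq2 with apeglm shrinkage.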
row,Sequence,shrunken log2 fold change
1,RRIRSRPPRLPRPRPRPVEQPRP,-0.0605
2,RRIRLRPPRLPRPRPRPMPYPRP,-0.0714
3,RRIRNRPPRLPRPRPRPVKPPRP,0.0644
4,RRIRIRPPRLPRPRPRPDYMPRP,-1.09
5,RRIRQRPPRLPRPRPRPWNFPRP,-0.15
6,RRIRMRPPRLPRPRPRPTHEPRP,0.439
7,RRIRCRPPRLPRPRPRPHKGPRP,-0.363
8,RRIRVRPPRLPRPRPRPQETPRP,0.0431
9,RRIRDRPPRLPRPRPRPANCPRP,-0.00155
10,RRIRFRPPRLPRPRPRPCLEPRP,-0.489
11,RRIRQRPPRLPRPRPRPCCPPRP,-0.192
12,RRIRHRPPRLPRPRPRPIITPRP,-1.46
13,RRIRARPPRLPRPRPRPKQWPRP,0.587
14,RRIRTRPPRLPRPRPRPWMTPRP,-0.0339
15,RRIRTRPPRLPRPRPRPKNKPRP,-0.525
16,RRIRMRPPRLPRPRPRPWGPPRP,0.106
17,RRIRVRPPRLPRPRPRPNSRPRP,0.00966
18,RRIRCRPPRLPRPRPRPWQWPRP,0.187
19,RRIRWRPPRLPRPRPRPRHDPRP,0.107
20,RRIRLRPPRLPRPRPRPMSVPRP,-0.18
21,RRIRYRPPRLPRPRPRPLTPPRP,0.0282
22,RRIRNRPPRLPRPRPRPMTPPRP,0.244
23,RRIRARPPRLPRPRPRPQGVPRP,-0.128
24,RRIRQRPPRLPRPRPRPTSNPRP,-0.64
25,RRIRDRPPRLPRPRPRPLFNPRP,-0.375

row,Sequence,shrunken log2 fold change
1,RRIRKRPPRLPRPRPRPNCCPRP,0.179
2,RRIRWRPPRLPRPRPRPRRTPRP,0.0983
3,RRIRWRPPRLPRPRPRPADSPRP,-0.29
4,RRIRWRPPRLPRPRPRPVMSPRP,-0.172
5,RRIRSRPPRLPRPRPRPSLKPRP,0.0541
6,RRIRNRPPRLPRPRPRPRIWPRP,0.0945
7,RRIRDRPPRLPRPRPRPMQSPRP,3.94
8,RRIRIRPPRLPRPRPRPYHGPRP,-0.0135
9,RRIRDRPPRLPRPRPRPCPTPRP,0.131
10,RRIRWRPPRLPRPRPRPPLSPRP,0.271
11,RRIRNRPPRLPRPRPRPALNPRP,0.0657
12,RRIRERPPRLPRPRPRPYPDPRP,-1.61
13,RRIRNRPPRLPRPRPRPCRGPRP,-0.0345
14,RRIRCRPPRLPRPRPRPAIGPRP,-0.135
15,RRIRWRPPRLPRPRPRPCCTPRP,0.0894
16,RRIRPRPPRLPRPRPRPKTHPRP,-0.0419
17,RRIRGRPPRLPRPRPRPNNRPRP,-0.112
18,RRIRCRPPRLPRPRPRPEAAPRP,1.11
19,RRIRPRPPRLPRPRPRPYHRPRP,-0.00884
20,RRIRVRPPRLPRPRPRPAAWPRP,0.136
21,RRIRMRPPRLPRPRPRPFCPPRP,0.0248
22,RRIRQRPPRLPRPRPRPSMVPRP,-0.632
23,RRIRVRPPRLPRPRPRPPRNPRP,0.343
24,RRIRCRPPRLPRPRPRPWEGPRP,-0.00146
25,RRIRTRPPRLPRPRPRPKQCPRP,-0.00809

row,Sequence,shrunken log2 fold change
1,RRIRCRPPRLPRPRPRPAYNPRP,-0.619
2,RRIRYRPPRLPRPRPRPADYPRP,3.66
3,RRIRIRPPRLPRPRPRPITWPRP,-0.551
4,RRIRGRPPRLPRPRPRPWDWPRP,1.2
5,RRIRARPPRLPRPRPRPERVPRP,0.577
6,RRIRFRPPRLPRPRPRPKQLPRP,-0.123
7,RRIRMRPPRLPRPRPRPAFYPRP,-0.0165
8,RRIRRRPPRLPRPRPRPMAWPRP,0.0237
9,RRIRPRPPRLPRPRPRPRLCPRP,0.646
10,RRIRWRPPRLPRPRPRPTKCPRP,-0.121
11,RRIRKRPPRLPRPRPRPETCPRP,0.0906
12,RRIRCRPPRLPRPRPRPQLSPRP,0.122
13,RRIRWRPPRLPRPRPRPPTCPRP,0.614
14,RRIRGRPPRLPRPRPRPAIMPRP,1
15,RRIRQRPPRLPRPRPRPRMGPRP,-0.0719
16,RRIRMRPPRLPRPRPRPPRAPRP,1.78
17,RRIRFRPPRLPRPRPRPQHIPRP,-0.51
18,RRIRFRPPRLPRPRPRPVPSPRP,-0.162
19,RRIRQRPPRLPRPRPRPQVPPRP,-0.148
20,RRIRARPPRLPRPRPRPQMRPRP,0.62
21,RRIRWRPPRLPRPRPRPIAAPRP,0.976
22,RRIRYRPPRLPRPRPRPASRPRP,-0.0366
23,RRIRFRPPRLPRPRPRPMASPRP,0.037
24,RRIRIRPPRLPRPRPRPRELPRP,-0.019
25,RRIRTRPPRLPRPRPRPLCEPRP,-0.0895

row,Sequence,shrunken log2 fold change
1,RRIRNRPPRLPRPRPRPPFVPRP,0.164
2,RRIRVRPPRLPRPRPRPIMHPRP,-0.156
3,RRIRTRPPRLPRPRPRPHALPRP,0.0575
4,RRIRYRPPRLPRPRPRPVFYPRP,-1.05
5,RRIRVRPPRLPRPRPRPLESPRP,0.114
6,RRIRHRPPRLPRPRPRPQWHPRP,-0.299
7,RRIRARPPRLPRPRPRPGCRPRP,0.609
8,RRIRPRPPRLPRPRPRPSYNPRP,-0.671
9,RRIRYRPPRLPRPRPRPEVFPRP,-0.0536
10,RRIRNRPPRLPRPRPRPESYPRP,-0.0446
11,RRIRVRPPRLPRPRPRPWIHPRP,-0.349
12,RRIRIRPPRLPRPRPRPHTRPRP,-0.35
13,RRIRKRPPRLPRPRPRPHLTPRP,0.055
14,RRIRARPPRLPRPRPRPMIGPRP,0.102
15,RRIRCRPPRLPRPRPRPIKVPRP,-0.000403
16,RRIRRRPPRLPRPRPRPFKDPRP,-0.11
17,RRIRFRPPRLPRPRPRPSSYPRP,-0.676
18,RRIRHRPPRLPRPRPRPHHKPRP,-0.556
19,RRIRGRPPRLPRPRPRPEVAPRP,1.88
20,RRIRNRPPRLPRPRPRPYIRPRP,0.00719
21,RRIRGRPPRLPRPRPRPGLHPRP,0.682
22,RRIRNRPPRLPRPRPRPDNIPRP,-0.312
23,RRIRQRPPRLPRPRPRPADTPRP,-0.128
24,RRIRPRPPRLPRPRPRPYRMPRP,0.0542
25,RRIRQRPPRLPRPRPRPQIQPRP,-0.411

row,Sequence,shrunken log2 fold change
1,RRIRSRPPRLPRPRPRPTLNPRP,-0.0269
2,RRIRSRPPRLPRPRPRPWVAPRP,0.0561
3,RRIRARPPRLPRPRPRPQRLPRP,0.247
4,RRIRIRPPRLPRPRPRPGRMPRP,0.198
5,RRIRVRPPRLPRPRPRPPVQPRP,0.377
6,RRIRARPPRLPRPRPRPIDVPRP,-0.641
7,RRIRFRPPRLPRPRPRPRQWPRP,0.39
8,RRIRRRPPRLPRPRPRPFSNPRP,-0.0243
9,RRIRFRPPRLPRPRPRPENVPRP,-0.0124
10,RRIRMRPPRLPRPRPRPPSRPRP,1.01
11,RRIRWRPPRLPRPRPRPYNWPRP,-1.06
12,RRIRERPPRLPRPRPRPCMIPRP,-0.2
13,RRIRTRPPRLPRPRPRPTRNPRP,-0.0423
14,RRIRFRPPRLPRPRPRPHEWPRP,-0.0176
15,RRIRHRPPRLPRPRPRPRQRPRP,0.162
16,RRIRNRPPRLPRPRPRPVLLPRP,-0.0738
17,RRIRMRPPRLPRPRPRPPPFPRP,1.15
18,RRIRWRPPRLPRPRPRPVNTPRP,-0.0848
19,RRIRERPPRLPRPRPRPFLRPRP,-0.401
20,RRIRERPPRLPRPRPRPEKMPRP,-0.421
21,RRIRKRPPRLPRPRPRPGDLPRP,0.273
22,RRIRFRPPRLPRPRPRPSCSPRP,-0.498
23,RRIRPRPPRLPRPRPRPQHSPRP,-0.161
24,RRIRSRPPRLPRPRPRPHWWPRP,0.359
25,RRIRARPPRLPRPRPRPAMHPRP,0.589

row,Sequence,shrunken log2 fold change
1,RRIRCRPPRLPRPRPRPYGWPRP,-0.27
2,RRIRMRPPRLPRPRPRPQWQPRP,0.825
3,RRIRPRPPRLPRPRPRPTYVPRP,0.0486
4,RRIRWRPPRLPRPRPRPAHEPRP,0.1
5,RRIRSRPPRLPRPRPRPREYPRP,-0.0557
6,RRIRARPPRLPRPRPRPIHHPRP,-0.302
7,RRIRWRPPRLPRPRPRPTMDPRP,0.156
8,RRIRERPPRLPRPRPRPGLFPRP,-0.0491
9,RRIRMRPPRLPRPRPRPCHNPRP,-0.355
10,RRIRTRPPRLPRPRPRPNSAPRP,-0.181
11,RRIRWRPPRLPRPRPRPRRYPRP,0.18
12,RRIRPRPPRLPRPRPRPWIKPRP,-0.0265
13,RRIRWRPPRLPRPRPRPQNPPRP,-0.0448
14,RRIRDRPPRLPRPRPRPLYLPRP,-0.648
15,RRIRPRPPRLPRPRPRPDTWPRP,0.0185
16,RRIRHRPPRLPRPRPRPTDKPRP,-0.185
17,RRIRQRPPRLPRPRPRPRQWPRP,0.254
18,RRIRARPPRLPRPRPRPLHPPRP,0.256
19,RRIRTRPPRLPRPRPRPMPEPRP,0.0253
20,RRIRMRPPRLPRPRPRPKNDPRP,1.05
21,RRIRFRPPRLPRPRPRPCSRPRP,-0.22
22,RRIRCRPPRLPRPRPRPYALPRP,-0.115
23,RRIRVRPPRLPRPRPRPWQWPRP,-0.0592
24,RRIRNRPPRLPRPRPRPVLYPRP,-0.374
25,RRIRQRPPRLPRPRPRPSLFPRP,-0.11
